Target: T1, 人源EpCAM重组胞外结构域蛋白 (human, UniProt P16422 24-265)
T1 construct: range 24-265; Made in-house in 293F cells from pcDNA3.4; coated on ELISA plates; also called EpCAM重组蛋白; 人源重组EpCAM
T1 sequence: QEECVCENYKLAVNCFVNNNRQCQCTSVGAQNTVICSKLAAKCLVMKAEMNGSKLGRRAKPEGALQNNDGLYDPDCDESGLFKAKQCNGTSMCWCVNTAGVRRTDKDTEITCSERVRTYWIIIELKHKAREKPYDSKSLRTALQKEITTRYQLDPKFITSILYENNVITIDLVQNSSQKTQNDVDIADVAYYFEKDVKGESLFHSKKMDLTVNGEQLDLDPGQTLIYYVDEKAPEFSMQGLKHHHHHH
Experiment: ELISA, coated human recombinant EpCAM, anti-HA-HRP detection

EC50: 1.96 nM
B1: 单域抗体 4C9 (VHH)
VHH: ESGGGSVQAGGSLRLSCAASEYTWSTTCMGWFRQAPGKEREGVAALYTRRGSTYYADSVKGRFTISRDNAENTVYLQMNSLKPEDTAMYYCASGPSTDFSCDYRRSNGYNYWGQGTQVTVSS
